Results taken from paper PMC5663869.

Assays:
H3K4me2 (1-21) = assay: ITC; iTC200, 25 °C, stirring 800 rpm; sample 150–260 μM, titrant 1.5–4 mM; one-site binding model; the figure legends on these data give mean ± S.D. (n = 4)
H3K4me3 (1-21) = assay: as above
H3K14ac T6C = assay: as above
H3K4me1 (1-21) = assay: as above
H3T6C (1-21) = assay: as above
H3K4me3K14ac = assay: as above
H3K4me2K14ac = assay: as above
H3K4me1K14ac = assay: as above
BAZ2B PHD–BRD (human) [1] = biological target: BAZ2B PHD–BRD (human) (UniProt Q9UIF8); assay: ITC; iTC200, 25 °C; 150–260 μM sample, 1.5–4 mM titrant; one-site binding model; n = 4
BAZ2B PHD domain (human) = BAZ2B PHD domain (human) (UniProt Q9UIF8); assay: as above
BAZ2B PHD–BRD (human) [2] = biological target: BAZ2B PHD–BRD (human) (UniProt Q9UIF8); assay: NMR titration; H3K14ac titrated into 15N-labelled PHD–BRD at peptide/protein ratios 0.5, 1, 1.5, 2 and 4; Kd estimated apart from BRD and from PHD residues

BAZ2B PHD-BRD WT, sequence (Q9UIF8 whole entry, the tested form may be a part): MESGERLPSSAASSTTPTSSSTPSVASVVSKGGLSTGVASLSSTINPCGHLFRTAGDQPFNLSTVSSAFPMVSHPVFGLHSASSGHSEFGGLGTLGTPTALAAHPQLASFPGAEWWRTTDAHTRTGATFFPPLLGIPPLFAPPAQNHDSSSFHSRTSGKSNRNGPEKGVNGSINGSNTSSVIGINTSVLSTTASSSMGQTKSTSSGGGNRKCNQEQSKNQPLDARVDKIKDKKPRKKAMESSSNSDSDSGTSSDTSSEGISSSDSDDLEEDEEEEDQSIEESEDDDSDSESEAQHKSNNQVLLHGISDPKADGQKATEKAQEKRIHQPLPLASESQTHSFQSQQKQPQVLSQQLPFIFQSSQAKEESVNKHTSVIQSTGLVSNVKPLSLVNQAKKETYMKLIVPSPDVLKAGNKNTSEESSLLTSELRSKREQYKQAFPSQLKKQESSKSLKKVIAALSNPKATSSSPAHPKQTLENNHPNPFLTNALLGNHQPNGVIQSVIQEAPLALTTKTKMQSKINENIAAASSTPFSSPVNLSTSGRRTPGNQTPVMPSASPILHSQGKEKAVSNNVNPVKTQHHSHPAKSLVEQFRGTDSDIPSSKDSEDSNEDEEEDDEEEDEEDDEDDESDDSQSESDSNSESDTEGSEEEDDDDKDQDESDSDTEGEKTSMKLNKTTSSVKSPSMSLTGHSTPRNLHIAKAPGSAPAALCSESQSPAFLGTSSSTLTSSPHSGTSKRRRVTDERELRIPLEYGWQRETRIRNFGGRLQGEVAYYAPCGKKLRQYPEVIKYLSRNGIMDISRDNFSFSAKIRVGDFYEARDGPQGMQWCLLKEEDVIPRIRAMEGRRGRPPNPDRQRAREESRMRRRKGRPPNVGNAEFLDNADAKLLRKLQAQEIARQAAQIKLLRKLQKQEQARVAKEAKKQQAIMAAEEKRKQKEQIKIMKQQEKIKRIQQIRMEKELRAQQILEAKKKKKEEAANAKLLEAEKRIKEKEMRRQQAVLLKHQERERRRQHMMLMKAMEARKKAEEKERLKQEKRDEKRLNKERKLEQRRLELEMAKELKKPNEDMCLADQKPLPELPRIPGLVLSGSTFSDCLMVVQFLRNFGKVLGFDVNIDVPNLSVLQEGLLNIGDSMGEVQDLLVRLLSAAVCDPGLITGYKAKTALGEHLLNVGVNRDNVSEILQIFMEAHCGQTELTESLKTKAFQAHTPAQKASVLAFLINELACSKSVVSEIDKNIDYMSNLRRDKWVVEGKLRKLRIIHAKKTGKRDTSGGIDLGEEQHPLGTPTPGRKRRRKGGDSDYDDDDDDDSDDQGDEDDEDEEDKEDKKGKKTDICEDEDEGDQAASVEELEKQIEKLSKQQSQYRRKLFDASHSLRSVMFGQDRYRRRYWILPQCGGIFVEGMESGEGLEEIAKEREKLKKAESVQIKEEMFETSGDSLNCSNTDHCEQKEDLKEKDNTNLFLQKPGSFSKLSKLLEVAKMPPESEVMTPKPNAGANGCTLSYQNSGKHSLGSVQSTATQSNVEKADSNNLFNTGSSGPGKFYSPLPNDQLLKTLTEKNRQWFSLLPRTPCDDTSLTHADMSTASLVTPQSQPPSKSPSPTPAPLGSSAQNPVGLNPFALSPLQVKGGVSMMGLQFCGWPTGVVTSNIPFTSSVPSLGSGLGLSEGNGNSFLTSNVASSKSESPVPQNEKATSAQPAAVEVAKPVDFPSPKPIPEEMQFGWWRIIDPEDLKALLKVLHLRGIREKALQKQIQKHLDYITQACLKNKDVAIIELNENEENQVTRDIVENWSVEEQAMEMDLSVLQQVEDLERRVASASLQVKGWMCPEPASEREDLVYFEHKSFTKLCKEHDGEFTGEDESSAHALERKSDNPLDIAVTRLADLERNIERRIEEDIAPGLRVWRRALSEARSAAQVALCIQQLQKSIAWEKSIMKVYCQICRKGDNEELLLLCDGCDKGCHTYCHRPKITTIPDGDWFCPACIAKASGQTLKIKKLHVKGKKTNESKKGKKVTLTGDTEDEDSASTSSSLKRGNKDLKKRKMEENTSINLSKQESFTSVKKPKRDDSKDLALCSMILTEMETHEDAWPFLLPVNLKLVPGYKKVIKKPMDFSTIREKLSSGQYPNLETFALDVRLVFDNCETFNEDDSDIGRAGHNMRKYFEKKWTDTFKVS
BAZ2B PHD–BRD (human), sequence (Q9UIF8 whole entry, the tested form may be a part): as above
BAZ2B PHD domain (human), sequence (Q9UIF8 whole entry, the tested form may be a part): as above
H3T6C (1-21), sequence (peptide, as listed by the source T6C (stands in the printed letters)): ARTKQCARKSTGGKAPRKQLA

Substance	Kd (H3K4me2 (1-21)) [µM]	stoichiometry N (H3K4me2 (1-21))	Kd (H3K4me3 (1-21)) [µM]	stoichiometry N (H3K4me3 (1-21))	Kd (H3K14ac T6C) [µM]	stoichiometry N (H3K14ac T6C)	Kd (H3K4me1 (1-21)) [µM]	stoichiometry N (H3K4me1 (1-21))	Kd (H3T6C (1-21)) [µM]	stoichiometry N (H3T6C (1-21))	Kd (BAZ2B PHD–BRD (human) [1]) [µM]	Kd (BAZ2B PHD domain (human)) [µM]	other results
BAZ2B PHD WT (from UniProt Q9UIF8 1-2168) (domain or fragment)	12.4	0.71	23.9	0.73	27	4.86	10.2	0.82	33.2	0.74	–	–	–
histone H3(1–10aa) peptide (from UniProt P68431 2-11)	–	–	–	–	–	–	–	–	–	–	115	23.1	–
histone H3(1–21aa) peptide, unmodified (from UniProt P68431 2-22)	–	–	–	–	–	–	–	–	–	–	54	5.78	–
histone H3(1–21aa)K14ac peptide (from UniProt P68431 2-22)	–	–	–	–	–	–	–	–	–	–	–	–	Kd estimated from BRD residues (BAZ2B PHD–BRD (human) [2]): > 8 µM; Kd estimated from PHD residues (BAZ2B PHD–BRD (human) [2]): > 190 µM

Continued, in another order:

Kd (H3K4me2 (1-21)) [µM]	stoichiometry N (H3K4me2 (1-21))	Kd (H3K4me3 (1-21)) [µM]	stoichiometry N (H3K4me3 (1-21))	Kd (H3K14ac T6C) [µM]	stoichiometry N (H3K14ac T6C)	Kd (H3K4me1 (1-21)) [µM]	stoichiometry N (H3K4me1 (1-21))	Kd (H3T6C (1-21)) [µM]	stoichiometry N (H3T6C (1-21))	Kd (BAZ2B PHD–BRD (human) [1]) [µM]	Kd (BAZ2B PHD domain (human)) [µM]	Substance	other results
123	1.76	130	1.89	50.4	2.92	88.4	1.94	148	1.59	–	–	BAZ2B PHD-BRD WT (from UniProt Q9UIF8 1-2168) (domain or fragment)	Kd (H3K4me3K14ac): 6.99 µM; stoichiometry N (H3K4me3K14ac): 0.54; Kd (H3K4me2K14ac): 18.9 µM; stoichiometry N (H3K4me2K14ac): 0.45; Kd (H3K4me1K14ac): 26.9 µM; stoichiometry N (H3K4me1K14ac): 0.54
–	–	–	–	–	–	–	–	–	–	> 2000	> 4000	histone H3(11–21aa) peptide (from UniProt P68431 12-22)	–
